Biological target: GFP(+36)
Test: time-resolved fluorescence anisotropy; AfFtn-GFP(+36) assembly at pH 7.6 with 500 mM NaCl and with 175 mM NaCl; [GFP] = 1 uM; biexponential fit (instrument response, rotational diffusion of the assembly), no homoFRET; triplicate

Substance: AfFtn (from UniProt O29424 1-173)
- stoichiometry N: 12 to 1
